{
  "source": "patent EP4806905A1",
  "about": "“PEPTIDE, PEPTIDE COMPLEX, PHARMACEUTICAL COMPOSITION, COMPOSITION FOR CELL CULTURE, AND COMPOSITION FOR MEDICAL USE, DIAGNOSTIC USE, OR RESEARCH USE” (PeptiDream Inc., priority 2023, dated 2025)",
  "key": {"[1]": {"system": "TCF/LEF Reporter-HEK 293 cells", "assay": "Evaluation of Wnt signal activation capability, TCF/LEF reporter assay", "assay_type": "cell-based", "conditions": "dimer structure numbers 1 to 43; classes 2-A to 2-E; tested at 0.1/1/10/100/1,000 nM depending on the dimer", "method": "In order to evaluate the Wnt signal activation capability of each of the synthesized peptide complexes (dime structure numbers 1 to 67), transcriptional activity was evaluated using a TCF/LEF reporter.\nTCF/LEF Reporter-HEK 293 cells (BPS Bioscience) were cultured in EMEM (Fuji FILM) containing 10% FBS (Thermo Fisher Scientific), 50 µg/mL Gentamicin (Nacalai Tesque), and 400 µg/mL Geneticin (Thermo Fisher Scientific).\nThe cells were detached using TrypLE (Thermo Fisher Scientific) and then suspended in EMEM containing 10% FBS, 50 µg/mL Gentamicin, and 10 mM LiCl (Sigma).\nThe cells were seeded into a white 96-well plate (Thermo Fisher Scientific) for cell adhesion and luminescence detection at a rate of 35,000 cells per well, and were then cultured overnight.\nSubsequently, Recombinant Human Wnt-3a Protein (R&D systems) or a peptide complex was added in the presence of 1 nM Recombinant Human R-spondin 1 (R&D systems), and stimulation was conducted for 5 hours and 30 minutes in a CO2 incubator at 37°C.\nThe ONE-Glo Luciferase Assay System (Peomega) was added and shaken for 4 minutes, and the resulting luminescent signals were detected using a SpectraMax Paradigm multimode microplate reader (Molecular Devices).\nThe thus obtained signals were analyzed using a GraphPad Prism, and the percentage activity was calculated with the maximum value of the signal value induced by Wnt3a deemed to be 100% and the signal value with no stimulus deemed to be 0%. Evaluations were conducted with the Wnt concentration within a range from […] to determine the 100% value.\nFor each dimer structure number, tests were conducted using the peptide complex addition concentrations described below. • a) For dimer structure number 1, 1 nM, 10 nM, 100 nM, and 1,000 nM • b) For dimer structure numbers 2 to 4, 1 nM, 10 nM, and 100 nM • c) For dimer structure numbers 5 to 14, 0.1 nM, 1 nM, 10 nM, and 100 nM • d) For dimer structure numbers 15 to 43, 0.1 nM, 1 nM, and 10 nM • e) For dimer strength numbers 44 to 56, six points starting at 30 nM and then reducing by a common ratio of 1/4 (0.03 nM, 0.12 nM, 0.47 nM, 1.9 nM, 7.5 nM and 30 nM) • f) For dimer strength numbers 57 to 67, six points starting at 30 nM and then reducing by a common ratio of 1/5 (0.0096, 0.048, 0.24, 1.2, 6.0, and 30 nM)"}, "Frizzled-2 (FZD2)": {"molecular_target": "T1, Frizzled-2 (FZD2) (Mus musculus, UniProt Q9JIP6)", "T1 construct": "purchased R&D systems 1307-FZ", "assay": "Evaluation of binding activity to Frizzled using ELISA (Frizzled-2)", "conditions": "peptide complex (linker structure number 9 added to the peptide) diluted to 10 nM; absorbance at 450 nm minus wells with no added peptide complex", "method": "(§1) In order to evaluate the binding activity of the synthesized peptide complexes (peptide complexes having the linker structure number 9 added to peptide sequence numbers 1 to 78) to Frizzled, a binding activity evaluation using the ELISA method was conducted using the steps described below.\n(§2) Biotin-labeled polyclonal anti-human IgG (eBioscience; 13-4998) was added to a streptavidin-coated 96-well plate (Thermo; 436014) in an amount of 200 µg per well, and left to stand for 30 minutes.\n(§3) Following washing three times with PBS-T, 3 pmol of Fc-tagged Frizzled-2 (R&D systems; 1307-FZ), Frizzled-7 (R&D systems; 6178-FZ), or Frizzled-8 (R&D systems; 6129-FZ) was added per well and left to stand for 30 minutes to immobilize each Frizzled on the plate.\n(§4) Following washing three times with PBS-T, the peptide complex diluted to 10 nM was added to Frizzled-2 and Frizzled-7, the peptide complex diluted to 500 nM was added to Frizzled-8, and the plate was left to stand for one hour.\n(§5) Following washing three times with PBS-T, Anti-HA-tag mAb-HRP-Direct T (MBL; M180-7) that had been diluted 5000-fold with PBS-T was added and left to stand for 30 minutes.\n(§6) Following washing three times with PBS-T, SureBlue TMB I-Component Microwell Peroxidase Substrate (SeraCare; 5120-0077) was added and left to stand for 10 minutes, and the reaction was then halted by adding an equal volume of TMB Stop Solution (SeraCare; 5150-0021).\n(§7) Using an Infinite M Nano* (TECAN), the absorbance was measured at 450 nm. The binding signal for each peptide complex was calculated by subtracting the absorbance in those wells containing no added peptide complex from the absorbance in those wells containing the added peptide."}, "Frizzled-8 (FZD8)": {"molecular_target": "T2, Frizzled-8 (FZD8) (Homo sapiens, UniProt Q9H461)", "T2 construct": "purchased R&D systems 6129-FZ", "T2 sequence (Q9H461 28-158 limits assumed)": "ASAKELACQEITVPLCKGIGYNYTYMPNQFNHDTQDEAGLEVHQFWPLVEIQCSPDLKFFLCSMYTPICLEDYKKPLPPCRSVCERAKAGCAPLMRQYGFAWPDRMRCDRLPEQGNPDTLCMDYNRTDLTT", "assay": "Evaluation of binding activity to Frizzled using ELISA (Frizzled-8)", "conditions": "peptide complex (linker structure number 9 added to the peptide) diluted to 500 nM; absorbance at 450 nm minus wells with no added peptide complex", "method": "as §1, §2, §3, §4, §5, §6, §7"}, "Frizzled-7 (FZD7)": {"molecular_target": "T3, Frizzled-7 (FZD7) (Homo sapiens, UniProt O75084)", "T3 construct": "purchased R&D systems 6178-FZ", "assay": "Evaluation of binding activity to Frizzled using ELISA (Frizzled-7)", "conditions": "peptide complex (linker structure number 9 added to the peptide) diluted to 10 nM; absorbance at 450 nm minus wells with no added peptide complex", "method": "as §1, §2, §3, §4, §5, §6, §7"}},
  "note": "Numbered stars: 1 amine (or outer) side, 2 acyl side, 3 side chain; on linkers, the order of the positions; unused ones are H or OH. Square brackets hold non-standard residues; d marks the D form. Ends that are not written are not given here. X1 = (S)‑3‑(2-carboxy-2-(methylamino)ethyl)benzoic acid, CN([C@@H](Cc1cccc(C(=O)[*:3])c1)C(=O)[*:2])[*:1]; Trp(7-aza) = N[C@@H](Cc1c[nH]c2ncccc12)C(=O)O; Ala(4-THP) = N[C@@H](CC1CCOCC1)C(=O)O; NMe4Pal = CN[C@@H](Cc1ccncc1)C(=O)O; NMeF = CN[C@@H](Cc1ccccc1)C(=O)O; Tic = O=C(O)[C@@H]1Cc2ccccc2CN1; Cit = NC(=O)NCCC[C@H](N)C(=O)O; NMeV = CN[C@H](C(=O)O)C(C)C",
  "data": [
    {"substance": "Dimer structure number 46: dimer of peptide SEQ ID NO: 35 and peptide SEQ ID NO: 79 via linker structure number 8 (chain 1 [dF]S[Ala(4-THP)]IRY[NMeF]VT[NMeF]I[NMeV]GCG; chain 2 FRWDVR[NMeF]SNWN[Tic]NCG; cysteine pairing not given here; also: dimer via linker structure number 8, attachment not given here)", "values": [
      {"measurement": "TCF/LEF Reporter Assay Result", "setting": "[1]", "value": "2-C (peptide complexes that exhibited 50% or more activity when 10 nM of the peptide complex was added)"},
      {"measurement": "ELISA signal Frizzled-2 (FZD2)", "setting": "Frizzled-2 (FZD2)", "value": 0.3},
      {"measurement": "ELISA signal Frizzled-8 (FZD8)", "setting": "Frizzled-8 (FZD8)", "value": 0.0},
      {"measurement": "ELISA signal Frizzled-7 (FZD7)", "setting": "Frizzled-7 (FZD7)", "value": 0.3}
    ]},
    {"substance": "Dimer structure number 66: dimer of peptide SEQ ID NO: 76 and peptide SEQ ID NO: 163 via linker structure number 3 (chain 1 [dF]S[Cit]IRY[NMeF]VT[NMe4Pal]I[NMeV][dS]CG; chain 2 FR[Trp(7-aza)]DVR[X1]SE[Trp(7-aza)]N[Tic]DCG; not fully specified; cysteine pairing not given here; also: dimer via linker structure number 3, attachment not given here)", "values": [
      {"measurement": "TCF/LEF Reporter Assay Result", "setting": "[1]", "value": "2-B (peptide complexes that exhibited 50% or more activity when 1 nM of the peptide complex was added)"},
      {"measurement": "ELISA signal Frizzled-2 (FZD2)", "setting": "Frizzled-2 (FZD2)", "value": 1.7},
      {"measurement": "ELISA signal Frizzled-8 (FZD8)", "setting": "Frizzled-8 (FZD8)", "value": 1.5},
      {"measurement": "ELISA signal Frizzled-7 (FZD7)", "setting": "Frizzled-7 (FZD7)", "value": 1.7}
    ]},
    {"substance": "Peptide sequence number 99: peptide of formula B3, amino acid residues shown in Table 2 (FRWDVR[NMeF]SN[Trp(7-aza)]N[Tic]NCG)", "values": [
      {"measurement": "TCF/LEF Reporter Assay Result", "setting": "[1]", "value": "2-C (peptide complexes that exhibited 50% or more activity when 10 nM of the peptide complex was added)"},
      {"measurement": "ELISA signal Frizzled-2 (FZD2)", "setting": "Frizzled-2 (FZD2)", "value": 0.0},
      {"measurement": "ELISA signal Frizzled-8 (FZD8)", "setting": "Frizzled-8 (FZD8)", "value": 0.4},
      {"measurement": "ELISA signal Frizzled-7 (FZD7)", "setting": "Frizzled-7 (FZD7)", "value": 0.0}
    ]},
    {"substance": "df-S-D-I-R-Y-MeF-V-T-MeF-I-MeV-ds-C-G ([dF]SDIRY[NMeF]VT[NMeF]I[NMeV][dS]CG) [Peptide sequence number 66]", "values": [
      {"measurement": "TCF/LEF Reporter Assay Result", "setting": "[1]", "value": "2-C (peptide complexes that exhibited 50% or more activity when 10 nM of the peptide complex was added)"},
      {"measurement": "ELISA signal Frizzled-2 (FZD2)", "setting": "Frizzled-2 (FZD2)", "value": 1.5},
      {"measurement": "ELISA signal Frizzled-8 (FZD8)", "setting": "Frizzled-8 (FZD8)", "value": 0.7},
      {"measurement": "ELISA signal Frizzled-7 (FZD7)", "setting": "Frizzled-7 (FZD7)", "value": 1.4}
    ]}
  ]
}
